# Experimental data from patent US20110020802, “NUCLEIC ACIDS, METHODS AND KITS FOR THE DIAGNOSIS OF DYT6 PRIMARY TORSION DYSTONIA” (Mount Sinai School of Medicine of New York University, published 2011).
# T1: THAP1 wild type (Homo sapiens, UniProt Q9NVV9 SEQ:1-213)
# T1 sequence: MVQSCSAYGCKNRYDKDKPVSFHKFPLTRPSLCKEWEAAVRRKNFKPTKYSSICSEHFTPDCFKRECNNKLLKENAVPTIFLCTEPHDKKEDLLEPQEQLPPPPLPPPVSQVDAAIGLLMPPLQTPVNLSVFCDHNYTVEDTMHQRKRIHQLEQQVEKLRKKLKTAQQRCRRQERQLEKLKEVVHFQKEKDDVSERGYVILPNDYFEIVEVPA
# B1: THABS probe (dsDNA)
# DNA 1: AGCAAGTAAGGGCAACTACTTCAT
# DNA 2: ATGAAGTAGTTGCCCTTACTTGCT
# Target: T1, THAP1 wild type
# Experiment: EMSA; specific band supershifted by anti-THAP1 and competed by >200x unlabeled THABS; 150 mM KCl, 20 mM Tris pH 7.5, poly(dI-dC), room temperature
# Conditions: tags: N-terminal V5 (pcDNA3.1/nV5); label: 5'-32P
# Method: Double-stranded oligonucleotide was prepared by annealing synthetic complementary oligonucleotides (5′-[…]-3′ (SEQ ID NO: 17) and the reverse complement of this oligo 5′ […]-3′ (SEQ ID NO: 48)) in 20 mM Tris/HCl (pH 7.5), 10 mM MgCl2, 50 mM NaCl, 1 mM dithiothreitol (DTT) by heating for 5 min at 95° c, and cooling to room temperature overnight. Probes were end-labeled with [gamma-³²P]ATP using T4 polynucleotide kinase. Unincorporated nucleotides were removed by column chromatography (illustra MicroSpin™ G-25 Columns, GE Healthcare), according to the manufacturer's protocol. […] Following buffer at 150 V at room temperature, gels were dried and exposed to storage Phosphor screens that were scanned and analyzed using a Typhoon phosphorimager (GE Healthcare).
# The two constructs were expressed in an in vitro transcription/translation (IVTT) system and assessed by western for equal levels of protein expression (FIG. 4A). When the radiolabeled THABS probe was incubated with the IVTT wild-type THAP1, a major shifted band was detected (FIG. 4B, lane 6, arrowhead). […]
binder,measurement,value
B1,binding result,binds
